From the supplement of paper PMC10567573

B1: PPFIA4 (parent)
chain: PGVHRRYSALREESAKDWETSPLP

Variants of: B1
Experiment: protein stability index of a GFP-peptide fusion (GPS, HEK-293T) (PSI 1-6); higher = more stable
Settings: c terminus: a fixed tail appended
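Note: lentivirally expressed fusions sorted by FACS into six bins by GFP to DsRed ratio, PSI derived from sequencing read proportions per bin multiplied by bin number.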

Protein stability index of substitutions, site by site:
R5: F 3.99, T 3.91, W 3.81, V 3.67, D 5.06, Q 4.6, M 4.71, A 4.86, K 4.34, P 4.54, Y 3.66, S 4.58, C 2.68, L 3.99, G 3.96, H 4.27
S14: N 4.69, M 3.41, I 4.05, D 4.92, F 3.63, L 3.93, E 4.69, H 4.19, G 4.12, K 5
A9: Q 3.5, N 4.4, V 4.12, E 3.92, W 3.58, H 3.92, P 2.93, F 2.91, S 4.22, K 4.03, M 3.86, Y 3.4, G 3.87, T 4.19, L 4.27, C 3.67
R11: C 4.37, P 4.19, F 3.59, M 4.45, T 4.88, Q 4.65, L 3.86, Y 3.79, V 4.21, E 5.29, W 3.16, N 4.58, D 4.82, I 3.92, K 4.36, G 3.41, H 3.67, A 4.31, S 4.55
L10: Y 4.02, V 4.26, W 4.31, Q 3.63, K 4.69, I 4.15, H 4.48, T 4.97, P 4.97, S 4.53, N 4.79, F 4.29, C 2.28, D 4.97, M 4.31, A 3.69
E13: A 3.75, I 3.45, P 3.11, S 3.96, Q 4.04, H 2.63, L 3.34, V 4.06, G 3.93, Y 3.14, W 2.64, M 2.96, T 3.51, K 3.69, N 3.42, C 2.38, D 3.74, F 3.8
Y7: L 4.18, S 4.58, F 4.13, T 4.27, K 4.58, R 4.6, A 4.8, P 4.24, C 3.87, N 4.5, H 4.39, D 4.38, W 4.2, E 5.25, G 4.62, Q 4.9, M 4.56, V 4.49, I 4.34
R6: S 4, N 4.48, F 3.74, E 4.88, W 2.71, L 3.04, P 3.91, H 3.65, T 4.35, Q 4.31, K 4.65, A 4.49, G 3.98, D 4.7, C 3.72, Y 3.62, I 3.39, M 3.82
E12: S 3.68, A 3.94, C 3.57, I 3.21, W 3.11, M 3.56, L 3.45, N 4.23, Q 3.68, K 3.96, F 3.02, Y 3.48, P 3.88, R 3.45, G 4.62, T 4.02, H 3.85, D 4.05
S8: N 4.34, L 3.54, K 4.64, G 4.23, Y 3.79, W 2.08, H 3.76, R 4.07, P 4.28, I 3.62, V 3.67, F 3.08, C 3.16, E 4.35, D 4.97, T 2.88, Q 4.86
